Assay [1] addresses human NT5E-Biotin (for NT5E, GenbankID: NP_002517.1, position: 1-552) (human) (UniProt P21589). The experiment in a line: ELISA, NT5E-Biotin on streptavidin plate; antibody 0.333 ug/mL diluted 1:3.
The target in assay [2] is CD73 endogenously expressed on the cell surface (MDA-MB-231 cells; U87-MG cells) (UniProt P21589). In words: flow cytometry on MDA-MB-231 cells; antibody 0.41 nM. On the technique in general: A flow cytometer gives signals particle by particle.
Assay [3] deals with FcγRIIIa (from Sino Biological, also known as CD16a) (UniProt P08637). The experiment in a line: BLI (Fortebio), FcγRIIIa on SA sensor, antibody 31.3-500 nM, 30 C, 1:1 fit.
Sequence of FcγRIIIa (from Sino Biological, also known as CD16a) (P08637 17-208 limits assumed): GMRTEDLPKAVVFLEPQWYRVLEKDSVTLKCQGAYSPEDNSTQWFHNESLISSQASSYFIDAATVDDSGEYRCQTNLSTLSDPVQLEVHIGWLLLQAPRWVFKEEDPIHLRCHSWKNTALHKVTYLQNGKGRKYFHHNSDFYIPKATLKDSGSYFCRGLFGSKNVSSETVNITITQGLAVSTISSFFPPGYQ
Assay [4] has as its target human NT5E-Biotin (for NT5E, GenbankID: NP_002517.1, position: 1-552) (human) (UniProt P21589). The experiment in a line: ELISA, NT5E-Biotin on streptavidin plate; antibody 0.333 ug/mL diluted 1:27. (In general: An ELISA detects its analyte on a solid surface through an enzyme-linked reagent.)
Assay [5] addresses CD73 endogenously expressed on the cell surface (MDA-MB-231 cells; U87-MG cells) (UniProt P21589). In words: flow cytometry on MDA-MB-231 cells; antibody 0.14 nM.
Assay [6] addresses human NT5E-Biotin (for NT5E, GenbankID: NP_002517.1, position: 1-552) (human) (UniProt P21589). In words: ELISA, NT5E-Biotin on streptavidin plate; antibody 0.333 ug/mL diluted 1:9.
The target is the same in assay [7]. The experiment in a line: ELISA, NT5E-Biotin on streptavidin plate; antibody 0.333 ug/mL diluted 1:81.
Assay [8] shares this target. The experiment in a line: ELISA, NT5E-Biotin on streptavidin plate.
The target of assay [9] is CD73 endogenously expressed on the cell surface (MDA-MB-231 cells; U87-MG cells) (UniProt P21589). The experiment in a line: flow cytometry on MDA-MB-231 cells.
Assay [10] has as its target human NT5E-Biotin (for NT5E, GenbankID: NP_002517.1, position: 1-552) (human) (UniProt P21589). The experiment in a line: ELISA, NT5E-Biotin on streptavidin plate; antibody 0.333 ug/mL diluted 1:243.
The target is the same in assay [11]. In words: ELISA, NT5E-Biotin on streptavidin plate; antibody 0.333 ug/mL.
The target in assay [12] is human NT5E(1-552)-his (human) (UniProt P21589). In words: BLI (Fortebio), antibody on Protein A sensor, antigen 3.125-200 nM, 37 C, 1:1 fit. (Biolayer interferometry detects binding as a change in optical thickness at a sensor tip.)
Sequence of human NT5E(1-552)-his (human) (P21589 27-552 limits assumed, form in doubt): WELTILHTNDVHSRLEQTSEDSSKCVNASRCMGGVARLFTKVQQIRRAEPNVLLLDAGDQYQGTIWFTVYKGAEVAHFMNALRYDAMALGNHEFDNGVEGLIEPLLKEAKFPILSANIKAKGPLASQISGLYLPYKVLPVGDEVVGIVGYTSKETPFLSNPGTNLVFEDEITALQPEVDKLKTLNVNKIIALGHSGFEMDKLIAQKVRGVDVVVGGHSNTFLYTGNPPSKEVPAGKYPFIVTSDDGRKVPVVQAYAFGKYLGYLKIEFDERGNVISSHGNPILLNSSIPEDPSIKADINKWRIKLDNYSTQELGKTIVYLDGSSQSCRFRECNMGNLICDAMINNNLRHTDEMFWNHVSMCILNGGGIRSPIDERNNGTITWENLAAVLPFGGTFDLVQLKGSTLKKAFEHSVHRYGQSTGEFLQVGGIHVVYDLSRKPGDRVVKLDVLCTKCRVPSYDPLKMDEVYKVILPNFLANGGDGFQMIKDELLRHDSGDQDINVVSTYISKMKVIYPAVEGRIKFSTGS
Assay [13] has as its target human NT5E-Biotin (for NT5E, GenbankID: NP_002517.1, position: 1-552) (human) (UniProt P21589). The experiment in a line: ELISA, NT5E-Biotin on streptavidin plate; antibody 0.333 ug/mL diluted 1:729.

Where “and” joins values, the source holds several entries; their conditions need not be identical. Equal entries are not always repeated.

Sequence of human NT5E-Biotin (for NT5E, GenbankID: NP_002517.1, position: 1-552) (human) (P21589 27-552 limits assumed, form in doubt): as above
Sequence of CD73 endogenously expressed on the cell surface (MDA-MB-231 cells; U87-MG cells) (P21589 27-549 limits assumed): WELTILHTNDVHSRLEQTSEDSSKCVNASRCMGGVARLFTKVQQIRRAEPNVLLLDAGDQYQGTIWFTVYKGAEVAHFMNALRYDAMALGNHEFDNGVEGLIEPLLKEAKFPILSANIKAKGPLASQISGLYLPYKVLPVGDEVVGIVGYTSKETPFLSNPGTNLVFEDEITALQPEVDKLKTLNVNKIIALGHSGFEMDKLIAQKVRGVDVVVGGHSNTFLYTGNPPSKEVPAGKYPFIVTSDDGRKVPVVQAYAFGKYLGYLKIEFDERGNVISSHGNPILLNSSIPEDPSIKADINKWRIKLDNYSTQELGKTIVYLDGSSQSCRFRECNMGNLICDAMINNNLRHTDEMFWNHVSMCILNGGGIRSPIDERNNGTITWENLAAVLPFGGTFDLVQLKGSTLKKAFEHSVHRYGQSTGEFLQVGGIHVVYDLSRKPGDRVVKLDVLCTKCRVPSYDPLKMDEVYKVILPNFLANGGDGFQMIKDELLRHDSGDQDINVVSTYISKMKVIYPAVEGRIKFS

On to “positive control antibody MEDI9447 (oleclumab)”, for which the OD (450 nm) in [1] is 2.57 and 2.6; in assay [4], 1.77 and 1.74; in [6], 2.27 and 2.28; in [7] it was 1.06 and 1.03; in assay [10] it was 0.536 and 0.528; in assay [11] it was 2.55 and 2.53. The OD (450 nm) in assay [13] is 0.272 and 0.275. Moreover, the FACS fluorescence signal (read-out not given) in assay [2] came to 91; in [5] it was 43.2. Further, the equilibrium dissociation constant (Kd) was 141 nM in [3] and 0.104 nM in assay [12]. Besides, the koff in [3] was 0.0342 s⁻¹; in assay [12], 2.44e-05 s⁻¹. Moreover, the on-rate constant (kon) in assay [3] was 243000 M⁻¹ s⁻¹; in [12], 234000 M⁻¹ s⁻¹. Besides, the EC50 in [8] was 0.048 nM; in [9], 1.43 nM. In assay [12], this substance displayed a S E (kon) of 3200 M⁻¹ s⁻¹. The S E(kdis) in [12] is 5.02e-06 s⁻¹.

As for Wild-type IgG1 antibody, in [3], the Kd was 125 nM, the koff stood at 0.022 s⁻¹ and the on-rate (kon) came out at 176000 M⁻¹ s⁻¹.

By Kd is commonly meant the constant that tells how readily two partners part at equilibrium. In general, koff refers to the first-order rate constant of dissociation. Read a high koff as a short-lived complex. For orientation: kon means the second-order rate constant of association. Broadly, the EC50 is the concentration at which the effect is half-maximal.

The values above are taken from patent publication EP4790071A2.
